Measurements taken from FireProtDB (doi:10.1016/s0167-4838(99)00132-6).

Settings: Oryctolagus cuniculus; pH 6; Thermal; DSC; KH2PO4-KOH 10 mM; reversible: no

Glyceraldehyde-3-phosphate dehydrogenase wild type, P46406, sequence (P46406 whole entry): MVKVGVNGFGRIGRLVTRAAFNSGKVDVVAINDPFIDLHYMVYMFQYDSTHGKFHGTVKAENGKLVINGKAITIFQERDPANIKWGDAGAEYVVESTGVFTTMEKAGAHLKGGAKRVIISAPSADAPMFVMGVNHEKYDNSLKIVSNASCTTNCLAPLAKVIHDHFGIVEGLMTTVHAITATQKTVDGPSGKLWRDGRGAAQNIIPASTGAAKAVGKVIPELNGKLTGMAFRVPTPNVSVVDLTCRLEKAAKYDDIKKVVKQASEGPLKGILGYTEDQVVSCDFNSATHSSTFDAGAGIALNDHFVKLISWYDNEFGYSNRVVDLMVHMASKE

With “Glyceraldehyde-3-phosphate dehydrogenase wild type, P46406” the Tm was 68.9 °C and the “unfolding enthalpy (calorimetric)” value was 693 kcal/mol.
